# From the DeepSol protein solubility set
# Assay: soluble on expression in E. coli; label from the status in PepcDB or PDB records
row,Sequence,soluble on expression in E. coli
1,AHHHHHHGSDLERALNAFHSMKVNQLTPPCSQMPIVEEDSPIIDVLKLLRTRHHVWVVNNRKDMKLVGIIRYLDIIDIFLPPKGARLGAVSSVFKSILSGAEKAGDIMERNFLTINEDATVLEALEKMKRYKIQILALIDEEGKLKGEISLRILINEFLRLIRVGGG,soluble
2,AHHHHHHGSGRIISIVSGKGGTGKTTVTANLSVALGDRGRKVLAVDGDLTMANLSLVLGVDDPDVTLHDVLAGEANVEDAIYMTQFDNVYVLPGAVDWEHVLKADPRKLPEVIKSLKDKFDFILIDCPAGLQLDAMSAMLSGEEALLVTNPEISCLTDTMKVGIVLKKAGLAILGFVLNRYGRSDRDIPPEAAEDVMEVPLLAVIPEDPAIREGTLEGIPAVKYKPESKGAKAFVKLAEEIEKLAGLKARVMY,not soluble
3,AHHHHHHGSIDAHAHIEFFKKNQEEIIEEAKRKLRGVVDSITEYRKTHVWKSWELLKDYFDFIFPTLGYHPNEARRGNWEKVRKVEDFILKHQKEIFGIGEIGLDYYHAKTKAERDAQREIFVHFLELAKELNLPVVIHAREAEKEALEIINRYDIPSYFHSYTGSVEVAREIVDGGHILGISTGIVFIPEVREVAKNIEIEYLVVETDAPYMSPYKGIRNKPIFVEVAIEELAKIKGMDKTEVEAVTEVNTIKFFSLPL,soluble
4,AHHHHHHGSIHIIEEYFRPYPARKKVAQILWEAGMSVKDGKIYVKGVEVPISGIAQVAGVNRKIVYHTIEYIESKPALKLLFENLSPRTSLISIAPLMGWEVLELTIQKGKYEKTLAKVLESLAERRVRVIEIFGSNPYEEKSKAFLVVEGIVPFEVISSLREEGSLERIVIHTPEKEKERMICPKCEIKYCPRKIFISTR,soluble
5,AHHHHHHGSILKMLESRGITLERMVETALELYIGEKRDAIKEKVRELMLHYLEDINVQALLMAALMLEEKFNVEGDPVNLVADELIGIDIAEYIGGKMALFNFFYYDTKKPGILRELPPFLDDAIGGFIAGCMTLLFHIPQKNSNGGNL,soluble
6,AHHHHHHGSKRVWLVIPDTNFLFIPGQFGVDIISELERILDVNYKIVIPNIVLEELKTILREGKLRGKDLIAARMALKLAERFPTIYVGDFMSKTTDELIYEFAISNDNVIVCTNDKQLRKRLREAGVPVVFLRQKKKLELEGMLG,soluble
7,AHHHHHHGSLKLVENVVGRVSEEENKVPEVQVPQSSIDEELKKIVEQIKARIYVVGVGGAGCNTVNRMMEVGVTGAKIIAVNTDAQDLLKVKAHQKILIGKELTRGLGAGNDPKIGEEAAKESERELRDALEGADMVFITCGLGGGTGTGAAPVIAEIARKMGALTVSVVTLPFTMEGIRRAKNAEYGLKRLVKYSDTVIVIPNDKLLEVAPKLPIQMAFKVADEILVQAVKGITELITKPGLVNLDFNDVRAVMKDGGVAMIGIGESDSEKRALEAAEQALNSPLLDVDISGATGALIHISGADVKLEEAQQIIEYVTRNVDPKAQVIWGIQLEPELEKTIRVMVVITGVTSRYITPEEETPLETPEESPSIEISIPEL,soluble
8,AHHHHHHGSPIRKVMKANEAAAWAAKLAKPKVIAAFPITPSTLIPEKISEFVANGELDAEFIKVESEHSAISACVGAAAAGVRTFTATASQGLALMHEILFIAAGMRLPIVMAIGNRALSAPINIWNDWQDTISQRDTGWMQFYAENNQEALDLILIAYKVAEDERVLLPAMVGFDAFILTHTVEPVEIPDQEVVDEFLGEYEPKHAYIDPARPITQGSLAFPAHYMESRYTVWEAMERAKKVIDEAFAEFEKKFGRKYQKIEEYKTEDADIIFVTMGSLAGTLKEWIDKKREEGYKVGAAKITVYRPFPVEEIRELAKKAKVLAFLEKNITIGLYGAVFTDASAALINESEKPLMVDFIVGLGGRDVTFNQLDEALEIAEKALKEGKVENPINWIGLRWELVK,soluble
9,AHHHHHHGSRTNAFEAVARYVYPSLRRRLVEILRERGLTQIQIAELLHITQSAVSRYLRMNRGALIEVEKFQDIDEKLKGLADTIVREKPDEYYIHGELVKIAVEMLGKGYVCSFHSKVDPEIDPKLCRICIETFG,not soluble
10,AHHHHHHGSVRDMEFGNLKPGVENSVCLSAEDLLNTVLSVINSTKARGAYVKIFGKDMEDNYLLEMLVDGSRILAIECSYVQAKKKVVGEEAIKKLAELVELPLIVSVYPLDDNQFRLILANNLEVYSQTPAVPLSSVFKKGATRTIESAIEEAKEEKEEEIQKIMKKTEEIVTEEKKKKEEKKRSSNRNTKRKQN,soluble
11,AIAANQWERFVWLALDAPDTIVERAPLVIQVAWLEDTQLRLWEPAAREPLKRGDDAALRTYLRDAAECPWDPATDPSLVREFLLSRAVDCAFRDELAEHAGCVVDEELDTDFIAETMALSEELVRADDKKLPLETQDLDPASFDLLRAELALPAASAREVLRAGAHWAITRWPPREQWLPPCSRADAPATTALAATGGVPSEAQATPEPMCTETTVSDATCALPSGVYAQLQRIGRQLHNEELLYTQHLLNAALERAQTMTANPRTEARLGRVGH,soluble
12,AIADNGDWGYMMTDPVTLNVGGHLYTTSLTTLTRYPDSMLGAMFGGDFPTARDPQGNYFIDRDGPLFRYVLNFLRTSELTLPLDFKEFDLLRKEADFYQIEPLIQCLNDPKPLYPMDTFEEVVELSSTRKLSKYSNPVAVIITQLTITTKVHSLLEGISNYFTKWNKHMMDTRDCQVSFTFGPCDYHQEVSLRVHLMEYITKQGFTIRNTRVHHMSERANENTVEHNWTFCRLARKTDD,soluble
13,AIAEKLSEWKKFRIDSDKNDWIEQVDISGAKSLYEKEAQDKPLRVLVLYGSLRQRSFTRCCAYEAARLLDHLGADVRVFDPTELPVKGQVEETHHKVQELRELALWSEAQFWCSPEMHGNVTGCFKNQIDWIPLSLGSVRPTQGRTLAICQVNGGSQSFNAVNTLRVLGRWMRMFTIPNQSSIPKAWQEFDEYNRMKPSPLRDRLVDVVEELVKFSLMLRDHSSFHCVCQKL,soluble
14,AIAELTGQRLREGDGPDGPADDGAGAQADLEHSLLVAAEKKDEGPYRMEHFRWGSPPKDKRYGGFMTSEKSQTPLVTLFKNAIIKNAYKKGE,soluble
15,AIAGSRQDPVPLSFVTLQEQRCVLSWFLGWNVAQKQRFLEDLISKAVPGKVSSLLDQLNTLQVNDRPPNIFECQLRLWTQWFDSWSEEERNAFLNCLEEKDPTFVAFFYDQVAGTAGRD,soluble
16,AIAMWQDQPMPSMDLVKNAFWNYVSQATLTAEETLQMIRNSELGQEINDRISKSTDAINKYTLAIQSQVTPLTQELLTKLSKEADQLKLSLEQEITSAQTQLKPYVEELKVDIEEQIERLKKDVAPYAEALNPEAMRLTLVQRAEELKAKLETSLMAMGPQSEELKQKLEQHFVEFQMSMSPLAESFQSQLAQRSQELQKNLAPYSEELSKLDPLAQDLKDQLTALWESFAKDKQS,soluble
17,AIARALESTPLTGDVDWKSPLGSRSTWARLREQTRHCTFYRTYCFKASLKQLEEVTEEHVTYVGDCAALPPSPFLCVLLAYDCCSPSREEVAAHLDCSKNVYWRAIVATWIRWKESRAEQVYQLLDPLYRDYRPIKVRQKDNSYHNSYLDVFIDQLLRYRCALVSLEEPFVLDVIPFPHLPPRYELEARGVLPQREYAAPADDDDDDDAVSRPRLQQ,soluble
18,AIASTMVYPREERLEKLTQDEIISSTKLVIQGLEALKSEHNSILQSLLETIQCLKKDEEASLVHEKSSLLRKSVEMIELGLGEAQVMMALSNHLNAVESEKQKLRAQVRRLCQENQWLRDELANTQHKVQKSEQSVAQLEEEKKHLEFMNQLKKYDDGATPEVSPHNDMHRDVSLSVRQLKRLRESK,soluble
19,AICCQVDNCGADLSKVKDYHRRHKVCEIHSKATTALVGGIMQRFCQQCSRFHVLEEFD,soluble
20,AKFREIANIALGKGAAIMADHLHEFIQLPVPHVGPLSYGELHMTLVDVIGRDSSVAVSQRFVGGGIHGEALVCLRGKDINQIGERLGYLLEFTPHNEIILNVSNLLVSSFLTSLGNQLDKQFSLRQPGIVDTITPYNEEQGESGELFTIEYTYMAEALDFECEVLFLIDKPSVEIIYEIMELI,not soluble
21,AKPVTSETMAAKTVGLQIYSLGKELYADVPGGLKKIKQMGYTNLELAGYKEGKIGGVDMMEFKKMVDDAGLKITSSHVNPPVREYTKANRSQISEYWKKTADDHAKLGVKYLIQPGQPSTRSTEETAFVCEIFNEAGKIVKAAGIPFGYHNHEMEFAKVNPGSTEAKLGRRVKGDCIYELFLKNTDPSLVFFEMDVYWAVMGQQDPIEWLKKYPNRIKVLHIKDRAILGESGMMNFENIFRQAYANGIKDYFVELEGMPDGRSQFEGVKGCVDYLLKAPFVK,soluble
22,AKVVCVLYDDPINGYPTSYARDDLPRIDKYPDGQTLPTPKAIDFTPGALLGSVSGELGLRKYLESQGHELVVTSSKDGPDSELEKHLHDAEVIISQPFWPAYLTAERIAKAPKLKLALTAGIGSDHVDLQAAIDNNITVAEVTYCNSNSVAEHVVMMVLGLVRNYIPSHDWARNGGWNIADCVARSYDVEGMHVGTVAAGRIGLRVLRLLAPFDMHLHYTDRHRLPEAVEKELNLTWHATREDMYGACDVVTLNCPLHPETEHMINDETLKLFKRGAYLVNTARGKLCDRDAIVRALESGRLAGYAGDVWFPQPAPNDHPWRTMPHNGMTPHISGTSLSAQTRYAAGTREILECYFEGRPIRDEYLIVQGGGLAGVGAHSYSKGNATGGSEEAAKYEKLDA,soluble
23,ALLAVSMVACTSDEIALIEAMSKTSEISSYEGNSKIQLSFKGQGFSEKTQKVFDFLASYVDGFTFEANQKYSSNDEKTKATLAMDGNVDMQGLSVKYKYWTDMDFTTENPSLIQIVELPPAITQPMFTFANTGTKKYITIDYGSVLSAENNGGISLNPENLAKNSVELQEMLLDFVKTTAKDFDPGMVAVTKKGSAVTDKGEKVTEYELKLDDAAAKKLLHAFINDVILQEDTIEFGKKYMEAAINMYDFPEEEKQEALDEINKGLDEFASQLPAYRDSVTQVFESIKDVKFFGDKGLVAKYYINNDGFLVGGKSSIDIKIKMADFAALLGDNFDEKDKNGVLYLTIDAESSVYNINKEVSIELPEITEENSFDVLKGFMPILSGIGSAPGIGEEDYTYDIPALSDGINVVMNGKVVYFPDVKPENVNGRVLVPIRTISEEMGAEVTYNDATKQVLIAKDDTEILLTIGSQEAYVNGEKIMLDVPAMIIEGRTMVPLRFISESMNATVEWDGEAQIVYIFY,not soluble
24,ALSGGFIKGFAHLGVMQALLEHDIKPDIISGVSAGALAGVFYADGNEPHQVIEYFSGHKFQDLTKLVIPKKGLFDLCEFIDFLHTNLKAKNLEELQIPLIITATDLDHGRMVHFHRGSIAERVAASCCMPVMFAPVNIDGTNYVDGGLMMNLPVSTLRRICDKVVAVNVSPIMAQDYKMNIVSIAMRSFHFMFRANTFPEREKCDLLIEPYNLYGYSNTELEKAEEIFEQGYKIAND,not soluble
25,AMADIGSMGDPLTWSKALKKLEKVTVQGSQKLTTGNCNWALSLVDLFHDTNFVKEKDWQLRDVIPLLEDVTQTLSGQEREAFERTWWAISAVKMGLQINNVVDGKASFQLLRAKYEKKTANKKQSEPSEEY,soluble
26,ANATVKMGSDSGALVFEPSTVTIKAGEEVKWVNNKLSPHNIVFAADGVDADTAAKLSHKGLAFAAGESFTSTFTEPGTYTYYCEPHRGAGMVGKVVVD,soluble
